The text below walks through data of paper PMC10450164 (Nucleic Acids Research, 2023).

The data set “crystal structure” deals with the molecule itself. As to the kind of experiment: crystal structure.
The data set “SEC” concerns the molecule itself. The data set can be described thus: SEC. A general note: Size exclusion chromatography separates by hydrodynamic size, large species first.

B1: TFAP2B DBD-HSH tandem domain (aa 219-457) (domain or fragment)
chain: not shown
With B1, the binding result in the data set “crystal structure” was “binds”.

B2: TFAP2A DBD-HSH tandem domain (aa 203-420) (domain or fragment)
chain: not shown
Consider B2, for which the “stoichiometry N” value in the data set “SEC” was determined as 2.

B3: TFAP2A HSH domain (aa 279-411) (domain or fragment, human, UniProt P05549 279-411, looked up)
chain: GRRKAANVTLLTSLVEGEAVHLARDFGYVCETEFPAKAVAEFLNRQHSDPNEQVTRKNMLLATKQICKEFTDLLAQDRSPLGNSRPNPILEPGIQSCLTHFNLISHGFGSPAVCAAVTALQNYLTEALKAMDK
In the case of B3, the “stoichiometry N” value in “SEC” was found to be 2.

As usually defined, the stoichiometry N is a count of units in the complex or per binding partner.
